Results from the Human Domainome abundance scans (Beltran et al. 2025).
± gives the uncertainty stated by the source.

Experiment: abundance fitness (aPCA) (normalised: wild type 0, dead -1); higher = more abundant; growth selection in yeast, the domain comes from the species named
Conditions: Homo sapiens

Substance	abundance fitness
Gamma-crystallin D G100C, P07320	-0.117 ± 0.096
Gamma-crystallin D G100D, P07320	0.069 ± 0.11
Gamma-crystallin D G100E, P07320	-0.069 ± 0.085
Gamma-crystallin D G100F, P07320	-0.779 ± 0.17
Gamma-crystallin D G100H, P07320	-0.561 ± 0.28
Gamma-crystallin D G100I, P07320	-0.826 ± 0.36
Gamma-crystallin D G100K, P07320	-0.325 ± 0.17
Gamma-crystallin D G100L, P07320	-0.266 ± 0.075
Gamma-crystallin D G100M, P07320	-0.356 ± 0.14
Gamma-crystallin D G100Q, P07320	-0.565 ± 0.17
Gamma-crystallin D G100R, P07320	-0.437 ± 0.073
Gamma-crystallin D G100T, P07320	-0.889 ± 0.45
Gamma-crystallin D G100V, P07320	-1.13 ± 0.16
Gamma-crystallin D G100Y, P07320	-0.839 ± 0.32
Gamma-crystallin D I103E, P07320	0.037 ± 0.13
Gamma-crystallin D I103H, P07320	-0.186 ± 0.088
Gamma-crystallin D I103Q, P07320	-0.03 ± 0.13
Gamma-crystallin D I103R, P07320	0.055 ± 0.064
Gamma-crystallin D L112E, P07320	-0.383 ± 0.045
